From article PMC12519199, “Molecular basis of SARS-CoV-2 proofreading enzyme–mediated resistance to remdesivir”

Target: nsp12 (RdRp catalytic subunit);nsp7;nsp8 (SARS-CoV-2;SARS-CoV-2;SARS-CoV-2, UniProt P0DTD1;P0DTD1;P0DTD1 4393-5324;3860-3942;3943-4140, ||)
Assay: fluorescence polarization; higher affinity than T20P14-R
Conditions: protein: recombinant;recombinant;recombinant; tags: His6-Smt3 removed by Ulp1;His6-Smt3 removed by Ulp1;His6-Smt3 removed by Ulp1; copies: 1;1;2; label: 5'-FAM (FP); hairpin, UUCG loop, 5' overhang 5 nt

Does GGGAAUGGGAUUUUAAUAGCUUCGGCUAUUAAAAUCCCA (structured_RNA) [T20P14-A] bind?
Result: binds
